# From patent publication US7994123B2, “Hybrid proteins with ErbB4 extracellular domain and neuregulin heparin-binding domain for targeting” (Wayne State University, priority 2004, dated 2011)
# Where “and” joins values, the source holds several entries; their conditions need not be identical. Equal entries are not always repeated.
# B1: B4-HA: extracellular domain of erbB4 expressed alone without the HBD, HA tag (control) (protein)
# chain: VCAGTENKLSSLSDLEQQYRALRKYYENCEVVMGNLEITSIEHNRDLSFLRSVREVTGYVLVALNQFRYLPLENLRIIRGTKLYEDRYALAIFLNYRKDGNFGLQELGLKNLTEILNGGVYVDQNKFLCYADTIHWQDIVRNPWPSNLTLVSTNGSSGCGRCHKSCTGRCWGPTENHCQTLTRTVCAEQCDGRCYGPYVSDCCHRECAGGCSGPKDTDCFACMNFNDSGACVTQCPQTFVYNPTTFQLEHNFNAKYTYGAFCVKKCPHNFVVDSSSCVRACPSSKMEVEENGIKMCKPCTDICPKACDGIGTGSLMSAQTVDSSNIDKFINCTKINGNLIFLVTGIHGDPYNAIEAIDPEKLNVFRTVREITGFLNIQSWPPNMTDFSVFSNLVTIGGRVLYSGLSLLILKQQGITSLQFQSLKEISAGNIYITDNSNLCYYHTINWTTLFSTINQRIVIRDNRKAENCTAEGMVCNHLCSSDGCWGPGPDQCLSCRRFSRGRICIESCNLYDGEFREFENGSICVECDPQCEKMEDGLLTCHGPGPDNCTKCSHFKDGPNCVEKCPDGLQGANSFIFKYADPDRECHPCHPNCTQGCNGPTSHDCIYYPWTGHSTLPQHAKN
# modifications: left off: small tags and cut ends
# B2: B4-HBD-HA: fusion polypeptide: erbB4 extracellular domain with NRG heparin-binding domain C-terminal, HA tag (protein)
# chain: VCAGTENKLSSLSDLEQQYRALRKYYENCEVVMGNLEITSIEHNRDLSFLRSVREVTGYVLVALNQFRYLPLENLRIIRGTKLYEDRYALAIFLNYRKDGNFGLQELGLKNLTEILNGGVYVDQNKFLCYADTIHWQDIVRNPWPSNLTLVSTNGSSGCGRCHKSCTGRCWGPTENHCQTLTRTVCAEQCDGRCYGPYVSDCCHRECAGGCSGPKDTDCFACMNFNDSGACVTQCPQTFVYNPTTFQLEHNFNAKYTYGAFCVKKCPHNFVVDSSSCVRACPSSKMEVEENGIKMCKPCTDICPKACDGIGTGSLMSAQTVDSSNIDKFINCTKINGNLIFLVTGIHGDPYNAIEAIDPEKLNVFRTVREITGFLNIQSWPPNMTDFSVFSNLVTIGGRVLYSGLSLLILKQQGITSLQFQSLKEISAGNIYITDNSNLCYYHTINWTTLFSTINQRIVIRDNRKAENCTAEGMVCNHLCSSDGCWGPGPDQCLSCRRFSRGRICIESCNLYDGEFREFENGSICVECDPQCEKMEDGLLTCHGPGPDNCTKCSHFKDGPNCVEKCPDGLQGANSFIFKYADPDRECHPCHPNCTQGCNGPTSHDCIYYPWTGHSTLPQHAKNSAAGSQSPALPPRLKEMKSQESAAGSKLVLRCETSSEYSSLRFKWFKNGNELNRKNKPQNIKIQKKPGKSELRINKASLADSGEYMCKVISKLGNDSASANITIVE
# modifications: left off: small tags and cut ends
# B3: HBD-S-B4-HA: fusion polypeptide: NRG heparin-binding domain, glycosylated spacer, erbB4 extracellular domain, C-terminal HA tag (protein)
# chain: QSGYKKKERGSGKKPESAAGSQSPALPPRLKEMKSQESAAGSKLVLRCETSSEYSSLRFKWFKPNGNELNRKNKQNIKIQKKPGKSELRINKASLADSGEYMCKVISKLGNDSASANITIVESNEIITGMPASTEGAYVSSESPIRISVSTEGANTSSSTSTSTTGTSGTQSVCAGTENKLSSLSDLEQQYRALRKYYENCEVVMGNLEITSIEHNRDLSFLRSVREVTGYVLVALNQFRYLPLENLRIIRGTKLYEDRYALAIFLNYRKDGNFGLQELGLKNLTEILNGGVYVDQNKFLCYADTIHWQDIVRNPWPSNLTLVSTNGSSGCGRCHKSCTGRCWGPTENHCQTLTRTVCAEQCDGRCYGPYVSDCCHRECAGGCSGPKDTDCFACMNFNDSGACVTQCPQTFVYNPTTFQLEHNFNAKYTYGAFCVKKCPHNFVVDSSSCVRACPSSKMEVEENGIKMCKPCTDICPKACDGIGTGSLMSAQTVDSSNIDKFINCTKINGNLIFLVTGIHGDPYNAIEAIDPEKLNVFRTVREITGFLNIQSWPPNMTDFSVFSNLVTIGGRVLYSGLSLLILKQQGITSLQFQSLKEISAGNIYITDNSNLCYYHTINWTTLFSTINQRIVIRDNRKAENCTAEGMVCNHLCSSDGCWGPGPDQCLSCRRFSRGRICIESCNLYDGEFREFENGSICVECDPQCEKMEDGLLTCHGPGPDNCTKCSHFKDGPNCVEKCPDGLQGANSFIFKYADPDRECHPCHPNCTQGCNGPTSHDCIYYPWTGHSTLPQHAKN
# modifications: left off: small tags and cut ends
# B4: HBD-B4-HA: fusion polypeptide: NRG heparin-binding domain N-terminal to erbB4 extracellular domain, no spacer, HA tag (protein)
# chain: SAAGSQSPALPPRLKEMKSQESAAGSKLVLRCETSSEYSSLRFKWFKNGNELNRKNKPQNIKIQKKPGKSELRINKASLADSGEYMCKVISKLGNDSASANITIVEVCAGTENKLSSLSDLEQQYRALRKYYENCEVVMGNLEITSIEHNRDLSFLRSVREVTGYVLVALNQFRYLPLENLRIIRGTKLYEDRYALAIFLNYRKDGNFGLQELGLKNLTEILNGGVYVDQNKFLCYADTIHWQDIVRNPWPSNLTLVSTNGSSGCGRCHKSCTGRCWGPTENHCQTLTRTVCAEQCDGRCYGPYVSDCCHRECAGGCSGPKDTDCFACMNFNDSGACVTQCPQTFVYNPTTFQLEHNFNAKYTYGAFCVKKCPHNFVVDSSSCVRACPSSKMEVEENGIKMCKPCTDICPKACDGIGTGSLMSAQTVDSSNIDKFINCTKINGNLIFLVTGIHGDPYNAIEAIDPEKLNVFRTVREITGFLNIQSWPPNMTDFSVFSNLVTIGGRVLYSGLSLLILKQQGITSLQFQSLKEISAGNIYITDNSNLCYYHTINWTTLFSTINQRIVIRDNRKAENCTAEGMVCNHLCSSDGCWGPGPDQCLSCRRFSRGRICIESCNLYDGEFREFENGSICVECDPQCEKMEDGLLTCHGPGPDNCTKCSHFKDGPNCVEKCPDGLQGANSFIFKYADPDRECHPCHPNCTQGCNGPTSHDCIYYPWTGHSTLPQHAKN
# modifications: left off: small tags and cut ends
# Test system: not listed separately
# Experiment: Heparin column binding
# Conditions: conditioned media; anti-HA western blot of flow through and elution
# Protocol: (§1) 4. Cell culture: The L6 cells were cultured in DMEM supplemented with 10% fetal calf serum, 1 mM L-glutamine and 1000 U/ml penicillin/streptomycin at 37° C. in 10% CO2 incubator. The HEK293 cells were cultured in DMEM with 10% fetal calf serum, 1 mM L-glutamine, 2 mM sodium pyruvate, 0.1 mM non-essential amino acids, 1000 U/ml penicillin/streptomycin at 37° C. in 10% CO2 incubator. The selective antibiotics Geneticin 200 μg/ml (Gibco-Invitrogen) was added to the cell cultures of stably transfected HEK293 cells harboring the NRG antagonists. 5. Stable expression of NRG antagonists in HEK293 cells: HEK293 cells were cultured in […] flasks to 80% confluence and transfected with the four NRG antagonist constructs using lipofectamine 2000 (Invitrogen Life Science) as instructed. The antibiotic Geneticin was then added at a concentration of 400 μg/ml to the transfected HEK293 cells to select the positive antagonist transfected cells. After three weeks of Geneticin selection, the transfected HEK293 cells were diluted and plated in 96 well plates to yield single positive clones. The single clones that expressed the highest levels of antagonists (confirmed by western blot using HA antibody) were then maintained in culture media with 200 μg/ml Geneticin. Optimem I (Gibco-Invitrogen) was applied to the stably transfected NRG antagonist cell lines at 37° C. in 10% CO2 incubator for 2 days. The conditioned Optimem I media was then used in the following experiments. 6. Heparin column binding: The conditioned media containing the four NRG antagonists was passed through the heparin column to allow binding to heparin. The excessive unbound antagonist proteins were washed off by 1×PBS twice. The antagonist proteins were then eluted by increasing concentration of NaCl (0.25, 0.3, 0.4, 0.5, 0.6 and 1M). The flow through solution from each step was examined by anti-HA western blots, as described later, to determine heparin binding ability of the antagonists. 7. Purification and quantitation of recombinant proteins: The NRG antagonists were purified by anti-HA affinity matrix (3F10) (rat mAb) according to manufacturer's instructions. Briefly, the column was equilibrated with buffer containing 20 mM Tris pH 7.5, 0.1 M NaCl, 0.1 M EDTA, and each antagonist in conditioned medium was applied individually to the anti-HA affinity matrix. Excess unbound antagonist proteins were washed with 20 volume of washing buffer (20 mM Tris pH 7.5, 0.1 M NaCl, 0.1 M EDTA and 0.05% Tween 20). The bound NRG antagonists were eluted with 0.1 M glycine (pH 2). The purified recombinant protein was then quantified using a BioRad Protein Assay kit (Bio-Rad, Hercules, Calif.) 8. Silver stain: Both the conditioned media and the purified NRG antagonists were resolved on 7.5% reducing SDS-polyacrylamide gels. The gel was fixed with 30% ethanol and 10% acetic acid for 30 min. 10% ethanol and ultrapure water were used subsequently to wash the gel before staining with SilverSNAP stain solution with enhancer for 30 min. The gel was then developed using SilverSNAP developer solution with enhancer. 5% acetic acid was used to stop the reaction when the desired band intensity was reached. The gel was dried on filter paper using a vacuum gel dyer. 9. […] Positive control L6 cells were treated with 50 pM NRG alone. L6 cell lysates were prepared and run on 5% SDS-PAGE gel. Western blots of erbB receptor phosphorylation were performed using 4G10 antibody. 10. Western blot: Western blots were performed on both conditioned NRG antagonist media and the antagonist-treated L6 cells. The antagonist proteins and the L6 cells were solubilized in SDS sample buffer and boiled for 5 min as described above (see also Li et al., supra). The NRG antagonists run on 7.5% SDS-PAGE gel were detected by anti-HA mAb HA.11. Phosphotyrosine mAb 4G10 was used to detect phosphorylated erbB receptor (p185) in L6 cell western blot analysis following resolution on overrun 5% reducing SDS-polyacrylamide gels. […]
row,binding to heparin column,Molecule
1,did not,B1
2,bound the heparin column,B2
3,bound the heparin column,B3
4,did not,B4

# Same assay, conditions: elution with increasing NaCl (0.25-1 M)
row,NaCl concentration needed to elute from heparin column,Molecule
1,0.4 to 0.5 M,B2
2,> 1 M and 1 M,B3

# Test system: erbB receptor phosphorylation (p185) in L6 cells
# Experiment: L6 assay: block of NRG-induced erbB receptor phosphorylation (p185)
# Type: cell-based
# Conditions: comparable amounts of antagonist with 50 pM NRG (IG-EGF form), 45 min
# Protocol: as §1
row,Molecule,effect on NRG-induced p185 erbB receptor phosphorylation
1,B1,little effect
2,B2,dramatically reduced erbB receptor activation
3,B3,dramatically reduced erbB receptor activation
4,B4,little effect
